What was measured:
[1] = target: T1, wild-type human Nectin-4 on the CHO huNectin4 Cl.3C8 cell line (human, UniProt Q96NY8 32-510); assay: flow cytometry on wild-type human Nectin-4 cell line
T1 construct: also called whole Nectin-4 protein; huNectin4 CI.3C8
T1 sequence: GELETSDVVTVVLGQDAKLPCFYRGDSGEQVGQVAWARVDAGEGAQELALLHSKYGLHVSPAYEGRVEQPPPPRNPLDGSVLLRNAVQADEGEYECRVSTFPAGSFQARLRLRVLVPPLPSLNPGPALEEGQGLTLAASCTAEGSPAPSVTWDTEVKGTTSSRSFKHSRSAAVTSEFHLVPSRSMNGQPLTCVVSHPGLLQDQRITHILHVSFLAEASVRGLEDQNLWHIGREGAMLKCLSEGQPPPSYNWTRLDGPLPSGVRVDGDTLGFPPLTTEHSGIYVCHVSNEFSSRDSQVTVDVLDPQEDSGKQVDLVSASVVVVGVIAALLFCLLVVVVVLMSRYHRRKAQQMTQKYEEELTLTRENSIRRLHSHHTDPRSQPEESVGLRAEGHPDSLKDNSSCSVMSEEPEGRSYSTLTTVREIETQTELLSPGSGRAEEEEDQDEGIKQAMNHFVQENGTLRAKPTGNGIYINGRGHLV

[2] = target: T2, human Nectin 1 on CHO cells (human, UniProt Q15223 31-517); assay: flow cytometry on CHO cells expressing human Nectin 1
T2 sequence: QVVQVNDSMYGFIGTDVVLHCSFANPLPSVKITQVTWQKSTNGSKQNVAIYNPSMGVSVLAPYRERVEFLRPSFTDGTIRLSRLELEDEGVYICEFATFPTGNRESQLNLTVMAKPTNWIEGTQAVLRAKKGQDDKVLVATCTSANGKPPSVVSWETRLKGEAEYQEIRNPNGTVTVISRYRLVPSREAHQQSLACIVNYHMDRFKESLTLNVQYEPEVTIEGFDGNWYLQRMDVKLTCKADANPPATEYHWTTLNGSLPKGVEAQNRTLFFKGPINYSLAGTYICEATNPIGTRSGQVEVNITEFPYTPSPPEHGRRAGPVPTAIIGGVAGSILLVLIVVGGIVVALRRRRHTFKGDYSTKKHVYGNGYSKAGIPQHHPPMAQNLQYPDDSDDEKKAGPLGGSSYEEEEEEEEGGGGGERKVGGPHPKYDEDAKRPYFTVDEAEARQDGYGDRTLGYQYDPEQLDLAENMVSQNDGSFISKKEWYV
Experimental: Anti-Nectin-4 antibodies were tested by flow cytometry for binding to different CHO cell lines made to express respectively the human Nectin 1, Nectin 2, Nectin 3 and PVR proteins. The expression of each cell lines was controlled and validated with known respectively the anti-human Nectin1, anti-human Nectin2, anti-human Nectin3 and anti-human PVR antibodies. The mature amino acid sequence of the proteins expressed by the cells were as follows:
Nectin 1, Nectin 2, Nectin 3 and PVR proteins as in Example 12. […] Epitope mapping was carried out by assessing competition for binding to Nectin-4 by SPR as in Example 14.

B1: antibody 6A7 (antibody, human IgG1, V domains shown)
VH: QVQLKESGAELVKPGASVKLSCKASGYTFTSYWMHWVKQRPGHGLEWVGEIDPSDSYTNYNQKFKGKATLTIDKSSSTVYMQLSSLTSEDSAVYYCARSGNYDAMDYWGQGTSVTVSA
VL: DIVMTQAAFSSAVTLGTSASISCRSSKSLLHSNGITYLYWYLQKPGQSPHFLIYQMSNLASGVPDRFTSSGSGTDFTLRISRVEAEDVGVYYCAQNLELPWTFGGGTKLEIK
notes: also called CHG1-M-4N4-6A7
binding result [1]: binds | binding result [2]: no binding

Source: patent US20240325557A1 (INNATE PHARMA, published 2024)
